This is an account of results in article PMC2892007.

The target of test [1] is Gelatin-binding domain of human plasma fibronectin (human). As to the kind of experiment: ITC; GBD in the cell (1 ml), Lig protein in the syringe (250 µl), 25 injections of 10 µl, 25°C, Tris buffer with 100 µM CaCl2; independent binding model.
Test [2] shares this target. The experiment in a line: ELISA. (In general: An ELISA detects its analyte on a solid surface through an enzyme-linked reagent.)
For test [3] the target is unchanged. The experiment in a line: SEC-MALS; mixtures of Lig protein and GBD on Superose 6, 20 mM HEPES, 150 mM NaCl, pH 7.5. On the technique in general: SEC sorts molecules by how far they enter the pores of the column.
Test [4] addresses Alexa-488 labeled LigBCen2RW1073C (Leptospira; L. interrogans serovar Pomona is the only strain named). The experiment in a line: other fluorescence titration.
For test [5], the target named is LigAVar12 (Leptospira; L. interrogans serovar Pomona is the only strain named). The experiment in a line: SPR. A general note: In SPR one partner is held on a chip, and binding of the other changes the refractive index at the surface.
Test [6] deals with LigBCen9 (Leptospira; L. interrogans serovar Pomona is the only strain named). The experiment in a line: SPR.
The target in test [7] is LigBCen7'-8 (Leptospira; L. interrogans serovar Pomona is the only strain named). The experiment in a line: SPR.
Test [8] has as its target LigA LigAVar13 (Leptospira interrogans) (UniProt Q72MA6). The experiment in a line: ELISA.
The target in test [9] is LigA LigAVar10 (Leptospira interrogans) (UniProt Q72MA6). The experiment in a line: ELISA.
In test [10] the target is LigA LigAVar7'-8 (Leptospira interrogans) (UniProt Q72MA6). The experiment in a line: SPR.
Test [11] addresses LigA LigAVar13 (Leptospira interrogans) (UniProt Q72MA6). As to the kind of experiment: SPR.
Test [12] has as its target LigA LigAVar10 (Leptospira interrogans) (UniProt Q72MA6). As to the kind of experiment: SPR.
Test [13] has as its target LigA LigAVar11 (Leptospira interrogans) (UniProt Q72MA6). As to the kind of experiment: SPR.
In test [14] the target is LigA LigAVar12 (Leptospira interrogans) (UniProt Q72MA6). The experiment in a line: SPR.

As a reminder, the Kd is the constant that tells how readily two partners part at equilibrium. Low values mean a tighter complex, high ones a looser complex. What is called stoichiometry N is the number of molecules, sites or subunits per partner or assembly. For orientation: koff means a measure of how fast the partners let go of each other. Read a low koff as slow dissociation. In general, kon refers to the rate constant with which the complex forms.

Sequence of Fibronectin gelatin binding domain (P02751 306-608): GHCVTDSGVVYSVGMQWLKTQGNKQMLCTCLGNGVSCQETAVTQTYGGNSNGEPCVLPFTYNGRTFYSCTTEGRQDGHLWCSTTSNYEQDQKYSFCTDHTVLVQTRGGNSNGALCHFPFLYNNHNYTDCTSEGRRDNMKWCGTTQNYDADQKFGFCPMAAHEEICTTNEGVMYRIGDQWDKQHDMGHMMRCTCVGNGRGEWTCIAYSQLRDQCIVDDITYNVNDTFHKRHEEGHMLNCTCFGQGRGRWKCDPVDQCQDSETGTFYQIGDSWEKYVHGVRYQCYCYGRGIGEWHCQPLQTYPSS

LigAVar7'-9 (domain or fragment): in [1], the 1/n was 0.98 GBD: Lig, the Kd came out at 6.11 µM, the dH is -29.2 kcal/mol and the stoichiometry N is 1.02 Lig: GBD. This substance came in with a dissociation constant Kd in [2] of 6.58 µM. For the same substance, the stoichiometry N in [3] is 0.97 GBD: Lig.
In the case of LigBCen7'-11 (domain or fragment), in test [1], the 1/n is 2.08 GBD: Lig, the dissociation constant Kd was 1.39 µM, the dH is -29 kcal/mol and the stoichiometry N is 0.479 Lig: GBD. Moreover, in test [2], the Kd came out at 1.47 µM. Further, the stoichiometry N in test [3] was 1.98 GBD: Lig.
As for LigAVar7'-12 (domain or fragment), in [1], the 1/n is 3.92 GBD: Lig, the Kd was 2.41 µM, the dH is -30.8 kcal/mol and the stoichiometry N was 0.255 Lig: GBD. For the same substance, the dissociation constant (Kd) in test [2] came out at 2.44 µM. Also, in test [3], the stoichiometry N is 4.04 GBD: Lig.
As to LigAVar7'-13 (domain or fragment), in test [1], the 1/n was 4.92 GBD: Lig, the dissociation constant (Kd) came to 0.047 µM, the dH is -94.9 kcal/mol and the stoichiometry N is 0.203 Lig: GBD. In test [2], the Kd worked out at 0.048 µM. For the same substance, the stoichiometry N in [3] is 5.05 GBD: Lig.
Substance “Gelatin-binding domain of human plasma fibronectin (domain or fragment)” gave a dissociation constant (Kd) in test [4] of 1.93 µM. Moreover, the koff in test [5] was 0.00678 s⁻¹; in [6] it was 0.00473 s⁻¹; in test [7], 0.00963 s⁻¹. Besides, the kon was 2360 M⁻¹ s⁻¹ in test [5], 560 M⁻¹ s⁻¹ in test [6] and 3570 M⁻¹ s⁻¹ in test [7].
For the substance LigBCen7'-8 (domain or fragment), in test [1], the 1/n is 1.01 GBD: Lig, the Kd is 2.28 µM, the dH is -20.4 kcal/mol and the stoichiometry N was 0.985 Lig: GBD. Besides, the stoichiometry N in test [3] is 1.01 GBD: Lig.
In the case of “Fibronectin gelatin binding domain (from UniProt P02751)”, the dissociation constant Kd in test [8] was determined as 11 µM; in test [9], 3.94 µM; in [10] it was 6.68 µM; in test [11], 10.4 µM; in [12] it was 4.25 µM; in test [13], 5.04 µM. Moreover, the dissociation constant (Kd) in test [14] was found to be 2.87 µM.
For the substance LigBCen7'-10 (domain or fragment), in [1], the 1/n was 1.96 GBD: Lig, the Kd was 1.35 µM, the dH is -26.7 kcal/mol and the stoichiometry N was 0.51 Lig: GBD. Besides, the Kd in test [2] amounted to 1.46 µM. Further, the stoichiometry N in test [3] was 2 GBD: Lig.
LigAVar7'-10 (domain or fragment): in test [1], the 1/n is 1.96 GBD: Lig, the Kd is 4.35 µM, the dH was -25.3 kcal/mol and the stoichiometry N is 0.51 Lig: GBD. In test [2], this substance came in with a Kd of 4.72 µM. The stoichiometry N in test [3] is 2 GBD: Lig.
Take LigBCen7'-9 (domain or fragment): in [1], the 1/n was 1.92 GBD: Lig, the Kd is 1.31 µM, the dH is -21.1 kcal/mol and the stoichiometry N was 0.52 Lig: GBD. In test [2], the equilibrium dissociation constant (Kd) was 1.39 µM. The stoichiometry N in test [3] is 2.05 GBD: Lig.
For LigAVar7'-11 (domain or fragment), in test [1], the 1/n is 2.98 GBD: Lig, the dissociation constant Kd came out at 3.13 µM, the dH is -22.1 kcal/mol and the stoichiometry N was 0.335 Lig: GBD. Besides, in test [2], the Kd was found to be 3.24 µM. Also, in test [3], the stoichiometry N is 2.96 GBD: Lig.
